These results are taken from patent US20220251154A1 (HANGZHOU SUMGEN BIOTECH, published 2022).

Assay [1] has as its target T1, biotin-labeled CD47 (Biotin-Fc-CD47) (UniProt Q08722 19-139, limits assumed, biotin-labeled (site not stated)).
T1 construct: not shown: Fc part
Nature of the assay: competition ELISA: SIRPα-His coated, Biotin-Fc-CD47 (2 ug/ml) pre-incubated with the binder; blocks CD47/SIRPα. In general terms: ELISA stands for enzyme-linked immunosorbent assay.

The target in assay [2] is T2, PD-L1-Fc (UniProt Q9NZQ7 19-239, limits assumed).
T2 construct: not shown: Fc part
T2 sequence (Q9NZQ7 19-239 limits assumed): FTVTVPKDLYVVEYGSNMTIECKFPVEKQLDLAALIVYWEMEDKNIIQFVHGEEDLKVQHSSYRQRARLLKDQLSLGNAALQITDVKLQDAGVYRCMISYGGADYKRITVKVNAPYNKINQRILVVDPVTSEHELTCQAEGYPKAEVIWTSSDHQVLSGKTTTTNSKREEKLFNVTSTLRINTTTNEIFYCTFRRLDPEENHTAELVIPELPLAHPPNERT
Nature of the assay: competition ELISA: PD-L1-Fc coated, Biotin-Fc-PD1 (1 ug/ml) added with the binder; blocks PD-1/PD-L1.

T1 sequence (Q08722 19-139 limits assumed): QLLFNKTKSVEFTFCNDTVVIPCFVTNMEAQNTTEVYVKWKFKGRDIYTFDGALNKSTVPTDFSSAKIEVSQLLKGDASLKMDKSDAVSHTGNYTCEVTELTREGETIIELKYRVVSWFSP

B1: fusion protein SG12474 (bispecific antibody, human IgG1, kappa, N297A)
heavy: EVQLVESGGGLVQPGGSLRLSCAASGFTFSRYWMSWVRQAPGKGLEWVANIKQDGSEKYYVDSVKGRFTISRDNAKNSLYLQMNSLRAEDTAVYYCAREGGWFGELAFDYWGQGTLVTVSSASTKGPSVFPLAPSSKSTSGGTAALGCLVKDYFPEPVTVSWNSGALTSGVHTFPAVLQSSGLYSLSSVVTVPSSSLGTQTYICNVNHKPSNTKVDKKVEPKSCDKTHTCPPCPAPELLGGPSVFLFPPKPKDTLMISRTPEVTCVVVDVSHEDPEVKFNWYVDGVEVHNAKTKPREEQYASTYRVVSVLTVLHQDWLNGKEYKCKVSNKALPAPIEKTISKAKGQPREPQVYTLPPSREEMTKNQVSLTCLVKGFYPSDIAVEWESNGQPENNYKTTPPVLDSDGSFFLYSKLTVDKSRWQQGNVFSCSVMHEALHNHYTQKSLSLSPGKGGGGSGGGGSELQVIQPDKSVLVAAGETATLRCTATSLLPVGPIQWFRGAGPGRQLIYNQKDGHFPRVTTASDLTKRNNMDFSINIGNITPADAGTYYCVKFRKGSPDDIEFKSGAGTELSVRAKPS
light: EIVLTQSPGTLSLSPGERATLSCRASQRVSSSYLAWYQQKPGQAPRLLIYDASSRATGIPDRFSGSGSGTDFTLTISRLEPEDFAVYYCQQYGSLPWTFGQGTKVEIKRTVAAPSVFIFPPSDEQLKSGTASVVCLLNNFYPREAKVQWKVDNALQSGNSQESVTEQDSKDSTYSLSSTLTLSKADYEKHKVYACEVTHQGLSSPVTKSFNRGEC
notes: First polypeptide chain is the SG1202 light chain
Consider B1, for which the IC50 (as a rule, the concentration at which inhibition is half-maximal) in assay [1] was 0.77 nM; in assay [2], 9.12 nM.
